The values below come from patent US20180071366A1.

Numbered stars: 1 amine (or outer) side, 2 acyl side, 3 side chain; on linkers, the order of the positions; unused ones are H or OH. Bridge positions count the residues as written; N and C are the ends. Square brackets hold non-standard residues; d marks the D form. * marks the point of attachment. C20 diacid = O=C(O)CCCCCCCCCCCCCCCCCCC(=O)*; γGlu = O=C(O)[C@H](CCC(=O)[*:2])N[*:1]; Hyp = O=C(O)[C@@H]1C[C@@H](O)CN1; NMeI = CC[C@H](C)[C@H](NC)C(=O)O; Aad = N[C@@H](CCCC(=O)O)C(=O)O; Orn = NCCC[C@H](N)C(=O)O; Sar = CNCC(=O)O

The target of experiment [1] is recombinant human amylin 3 receptor (hAMYR3) (human), P30988. As to the kind of experiment: cell-based or functional assay.
The target of experiment [2] is recombinant human calcitonin receptor (hCT-R) (human), P30988. As to the kind of experiment: cell-based or functional assay.
Chain of recombinant human calcitonin receptor (hCT-R) (human), P30988 (P30988 25-474): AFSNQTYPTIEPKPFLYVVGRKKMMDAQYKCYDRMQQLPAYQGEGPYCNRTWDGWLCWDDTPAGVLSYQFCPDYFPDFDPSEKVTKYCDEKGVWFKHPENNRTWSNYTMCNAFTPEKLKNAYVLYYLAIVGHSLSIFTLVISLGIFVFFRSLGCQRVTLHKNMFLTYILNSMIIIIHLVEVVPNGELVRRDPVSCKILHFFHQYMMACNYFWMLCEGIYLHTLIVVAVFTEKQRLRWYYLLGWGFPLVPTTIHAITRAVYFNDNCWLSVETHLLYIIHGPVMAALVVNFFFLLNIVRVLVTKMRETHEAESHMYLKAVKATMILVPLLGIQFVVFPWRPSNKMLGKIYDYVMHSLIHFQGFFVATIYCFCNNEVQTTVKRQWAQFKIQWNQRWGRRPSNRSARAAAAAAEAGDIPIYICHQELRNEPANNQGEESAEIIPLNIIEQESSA

Chain of recombinant human amylin 3 receptor (hAMYR3) (human), P30988 (P30988 25-474, chain 1 of 2): as the sequence (P30988 25-474) above
Chain of recombinant human amylin 3 receptor (hAMYR3) (human), P30988 (O60896 24-148, chain 2 of 2, further chain): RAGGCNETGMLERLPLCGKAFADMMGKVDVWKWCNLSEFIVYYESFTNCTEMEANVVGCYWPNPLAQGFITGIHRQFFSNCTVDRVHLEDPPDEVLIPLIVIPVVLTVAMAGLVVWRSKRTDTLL

B1: Compound 26 (peptide)
peptide: {C20 diacid-γGlu}-RDGTAT[Orn]ATERLA[Aad]FLQRAAF[Sar]A[NMeI]LSSTEVGSNT[Hyp]-NH2
modifications: lactam 2-7
SMILES: CC[C@H](C)[C@@H](C(=O)N[C@@H](CC(C)C)C(=O)N[C@@H](CO)C(=O)N[C@@H](CO)C(=O)N[C@H](C(=O)N[C@@H](CCC(=O)O)C(=O)N[C@H](C(=O)NCC(=O)N[C@@H](CO)C(=O)N[C@@H](CC(N)=O)C(=O)N[C@H](C(=O)N1C[C@H](O)C[C@H]1C(N)=O)[C@@H](C)O)C(C)C)[C@@H](C)O)N(C)C(=O)[C@H](C)NC(=O)CN(C)C(=O)[C@H](Cc1ccccc1)NC(=O)[C@H](C)NC(=O)[C@H](C)NC(=O)[C@H](CCCNC(=N)N)NC(=O)[C@H](CCC(N)=O)NC(=O)[C@H](CC(C)C)NC(=O)[C@H](Cc1ccccc1)NC(=O)[C@H](CCCC(=O)O)NC(=O)[C@H](C)NC(=O)[C@H](CC(C)C)NC(=O)[C@H](CCCNC(=N)N)NC(=O)[C@H](CCC(=O)O)NC(=O)[C@@H](NC(=O)[C@H](C)NC(=O)[C@@H]1CCCNC(=O)C[C@H](NC(=O)[C@H](CCCNC(=N)N)NC(=O)CC[C@H](NC(=O)CCCCCCCCCCCCCCCCCCC(=O)O)C(=O)O)C(=O)NCC(=O)N[C@@H]([C@@H](C)O)C(=O)N[C@@H](C)C(=O)N[C@@H]([C@@H](C)O)C(=O)N1)[C@@H](C)O
B1: the hAMYR3 EC50 [nM] (cAMP formation, 1321N1 cells expressing hAMYR3) in experiment [1] came out at 0.12 nM. Besides, in experiment [2], the hCT-R EC50 [nM] (cAMP formation, 1321N1 cells expressing hCT-R) was determined as 0.769 nM.

B2: Compound 27 (peptide)
peptide: {C20 diacid-γGlu}-RDGTAT[Orn]ATERLA[Aad]FLQRGTF[Sar]A[NMeI]LSSTEVGSNT[Hyp]-NH2
modifications: lactam 2-7
SMILES: CC[C@H](C)[C@@H](C(=O)N[C@@H](CC(C)C)C(=O)N[C@@H](CO)C(=O)N[C@@H](CO)C(=O)N[C@H](C(=O)N[C@@H](CCC(=O)O)C(=O)N[C@H](C(=O)NCC(=O)N[C@@H](CO)C(=O)N[C@@H](CC(N)=O)C(=O)N[C@H](C(=O)N1C[C@H](O)C[C@H]1C(N)=O)[C@@H](C)O)C(C)C)[C@@H](C)O)N(C)C(=O)[C@H](C)NC(=O)CN(C)C(=O)[C@H](Cc1ccccc1)NC(=O)[C@@H](NC(=O)CNC(=O)[C@H](CCCNC(=N)N)NC(=O)[C@H](CCC(N)=O)NC(=O)[C@H](CC(C)C)NC(=O)[C@H](Cc1ccccc1)NC(=O)[C@H](CCCC(=O)O)NC(=O)[C@H](C)NC(=O)[C@H](CC(C)C)NC(=O)[C@H](CCCNC(=N)N)NC(=O)[C@H](CCC(=O)O)NC(=O)[C@@H](NC(=O)[C@H](C)NC(=O)[C@@H]1CCCNC(=O)C[C@H](NC(=O)[C@H](CCCNC(=N)N)NC(=O)CC[C@H](NC(=O)CCCCCCCCCCCCCCCCCCC(=O)O)C(=O)O)C(=O)NCC(=O)N[C@@H]([C@@H](C)O)C(=O)N[C@@H](C)C(=O)N[C@@H]([C@@H](C)O)C(=O)N1)[C@@H](C)O)[C@@H](C)O
With B2, in experiment [1], the hAMYR3 EC50 [nM] (cAMP formation, 1321N1 cells expressing hAMYR3) stood at 0.325 nM. Further, the hCT-R EC50 [nM] (cAMP formation, 1321N1 cells expressing hCT-R) in experiment [2] amounted to 0.521 nM.

B3: Compound 23 (peptide)
peptide: {C20 diacid-γGlu}-RDGTAT[Orn]ATERLA[Aad]FLQRTTF[Sar]A[NMeI]LSSTEVGSNT[Hyp]-NH2
modifications: lactam 2-7
SMILES: CC[C@H](C)[C@@H](C(=O)N[C@@H](CC(C)C)C(=O)N[C@@H](CO)C(=O)N[C@@H](CO)C(=O)N[C@H](C(=O)N[C@@H](CCC(=O)O)C(=O)N[C@H](C(=O)NCC(=O)N[C@@H](CO)C(=O)N[C@@H](CC(N)=O)C(=O)N[C@H](C(=O)N1C[C@H](O)C[C@H]1C(N)=O)[C@@H](C)O)C(C)C)[C@@H](C)O)N(C)C(=O)[C@H](C)NC(=O)CN(C)C(=O)[C@H](Cc1ccccc1)NC(=O)[C@@H](NC(=O)[C@@H](NC(=O)[C@H](CCCNC(=N)N)NC(=O)[C@H](CCC(N)=O)NC(=O)[C@H](CC(C)C)NC(=O)[C@H](Cc1ccccc1)NC(=O)[C@H](CCCC(=O)O)NC(=O)[C@H](C)NC(=O)[C@H](CC(C)C)NC(=O)[C@H](CCCNC(=N)N)NC(=O)[C@H](CCC(=O)O)NC(=O)[C@@H](NC(=O)[C@H](C)NC(=O)[C@@H]1CCCNC(=O)C[C@H](NC(=O)[C@H](CCCNC(=N)N)NC(=O)CC[C@H](NC(=O)CCCCCCCCCCCCCCCCCCC(=O)O)C(=O)O)C(=O)NCC(=O)N[C@@H]([C@@H](C)O)C(=O)N[C@@H](C)C(=O)N[C@@H]([C@@H](C)O)C(=O)N1)[C@@H](C)O)[C@@H](C)O)[C@@H](C)O
For B3, the hAMYR3 EC50 [nM] (cAMP formation, 1321N1 cells expressing hAMYR3) in experiment [1] worked out at 0.706 nM. In experiment [2], the hCT-R EC50 [nM] (cAMP formation, 1321N1 cells expressing hCT-R) was 1.93 nM.

B4: Compound 25 (peptide)
peptide: {C20 diacid-γGlu}-RDGTAT[Orn]ATERLA[Aad]FLQRATF[Sar]A[NMeI]LSSTEVGSNT[Hyp]-NH2
modifications: lactam 2-7
SMILES: CC[C@H](C)[C@@H](C(=O)N[C@@H](CC(C)C)C(=O)N[C@@H](CO)C(=O)N[C@@H](CO)C(=O)N[C@H](C(=O)N[C@@H](CCC(=O)O)C(=O)N[C@H](C(=O)NCC(=O)N[C@@H](CO)C(=O)N[C@@H](CC(N)=O)C(=O)N[C@H](C(=O)N1C[C@H](O)C[C@H]1C(N)=O)[C@@H](C)O)C(C)C)[C@@H](C)O)N(C)C(=O)[C@H](C)NC(=O)CN(C)C(=O)[C@H](Cc1ccccc1)NC(=O)[C@@H](NC(=O)[C@H](C)NC(=O)[C@H](CCCNC(=N)N)NC(=O)[C@H](CCC(N)=O)NC(=O)[C@H](CC(C)C)NC(=O)[C@H](Cc1ccccc1)NC(=O)[C@H](CCCC(=O)O)NC(=O)[C@H](C)NC(=O)[C@H](CC(C)C)NC(=O)[C@H](CCCNC(=N)N)NC(=O)[C@H](CCC(=O)O)NC(=O)[C@@H](NC(=O)[C@H](C)NC(=O)[C@@H]1CCCNC(=O)C[C@H](NC(=O)[C@H](CCCNC(=N)N)NC(=O)CC[C@H](NC(=O)CCCCCCCCCCCCCCCCCCC(=O)O)C(=O)O)C(=O)NCC(=O)N[C@@H]([C@@H](C)O)C(=O)N[C@@H](C)C(=O)N[C@@H]([C@@H](C)O)C(=O)N1)[C@@H](C)O)[C@@H](C)O
As to B4, the hAMYR3 EC50 [nM] (cAMP formation, 1321N1 cells expressing hAMYR3) in experiment [1] stood at 0.336 nM. In addition, the hCT-R EC50 [nM] (cAMP formation, 1321N1 cells expressing hCT-R) in experiment [2] came to 0.844 nM.

B5: Compound 3 (peptide)
peptide: {C20 diacid-γGlu}-RDGTAT[Orn]ATERLAHFLQRSSF[Sar]A[NMeI]LSSTEVGSNT[Hyp]-NH2
modifications: lactam 2-7
SMILES: CC[C@H](C)[C@@H](C(=O)N[C@@H](CC(C)C)C(=O)N[C@@H](CO)C(=O)N[C@@H](CO)C(=O)N[C@H](C(=O)N[C@@H](CCC(=O)O)C(=O)N[C@H](C(=O)NCC(=O)N[C@@H](CO)C(=O)N[C@@H](CC(N)=O)C(=O)N[C@H](C(=O)N1C[C@H](O)C[C@H]1C(N)=O)[C@@H](C)O)C(C)C)[C@@H](C)O)N(C)C(=O)[C@H](C)NC(=O)CN(C)C(=O)[C@H](Cc1ccccc1)NC(=O)[C@H](CO)NC(=O)[C@H](CO)NC(=O)[C@H](CCCNC(=N)N)NC(=O)[C@H](CCC(N)=O)NC(=O)[C@H](CC(C)C)NC(=O)[C@H](Cc1ccccc1)NC(=O)[C@H](Cc1c[nH]cn1)NC(=O)[C@H](C)NC(=O)[C@H](CC(C)C)NC(=O)[C@H](CCCNC(=N)N)NC(=O)[C@H](CCC(=O)O)NC(=O)[C@@H](NC(=O)[C@H](C)NC(=O)[C@@H]1CCCNC(=O)C[C@H](NC(=O)[C@H](CCCNC(=N)N)NC(=O)CC[C@H](NC(=O)CCCCCCCCCCCCCCCCCCC(=O)O)C(=O)O)C(=O)NCC(=O)N[C@@H]([C@@H](C)O)C(=O)N[C@@H](C)C(=O)N[C@@H]([C@@H](C)O)C(=O)N1)[C@@H](C)O
For the molecule B5, in experiment [1], the hAMYR3 EC50 [nM] (cAMP formation, 1321N1 cells expressing hAMYR3) was 0.035 nM. Further, in experiment [2], the hCT-R EC50 [nM] (cAMP formation, 1321N1 cells expressing hCT-R) worked out at 0.081 nM.

B6: Compound 28 (peptide)
peptide: {C20 diacid-γGlu}-RDQTAT[Orn]ATERLA[Aad]FLQRGTF[Sar]A[NMeI]LSSTEVGSNT[Hyp]-NH2
modifications: lactam 2-7
SMILES: CC[C@H](C)[C@@H](C(=O)N[C@@H](CC(C)C)C(=O)N[C@@H](CO)C(=O)N[C@@H](CO)C(=O)N[C@H](C(=O)N[C@@H](CCC(=O)O)C(=O)N[C@H](C(=O)NCC(=O)N[C@@H](CO)C(=O)N[C@@H](CC(N)=O)C(=O)N[C@H](C(=O)N1C[C@H](O)C[C@H]1C(N)=O)[C@@H](C)O)C(C)C)[C@@H](C)O)N(C)C(=O)[C@H](C)NC(=O)CN(C)C(=O)[C@H](Cc1ccccc1)NC(=O)[C@@H](NC(=O)CNC(=O)[C@H](CCCNC(=N)N)NC(=O)[C@H](CCC(N)=O)NC(=O)[C@H](CC(C)C)NC(=O)[C@H](Cc1ccccc1)NC(=O)[C@H](CCCC(=O)O)NC(=O)[C@H](C)NC(=O)[C@H](CC(C)C)NC(=O)[C@H](CCCNC(=N)N)NC(=O)[C@H](CCC(=O)O)NC(=O)[C@@H](NC(=O)[C@H](C)NC(=O)[C@@H]1CCCNC(=O)C[C@H](NC(=O)[C@H](CCCNC(=N)N)NC(=O)CC[C@H](NC(=O)CCCCCCCCCCCCCCCCCCC(=O)O)C(=O)O)C(=O)N[C@@H](CCC(N)=O)C(=O)N[C@@H]([C@@H](C)O)C(=O)N[C@@H](C)C(=O)N[C@@H]([C@@H](C)O)C(=O)N1)[C@@H](C)O)[C@@H](C)O
Regarding B6, in experiment [1], the hAMYR3 EC50 [nM] (cAMP formation, 1321N1 cells expressing hAMYR3) came out at 0.268 nM. The hCT-R EC50 [nM] (cAMP formation, 1321N1 cells expressing hCT-R) in experiment [2] was 1.23 nM.

B7: Compound 24 (peptide)
peptide: {C20 diacid-γGlu}-RDGTAT[Orn]ATERLA[Aad]FLQRTTF[Sar]A[NMeI]PSSTEVGSNT[Hyp]-NH2
modifications: lactam 2-7
SMILES: CC[C@H](C)[C@@H](C(=O)N1CCC[C@H]1C(=O)N[C@@H](CO)C(=O)N[C@@H](CO)C(=O)N[C@H](C(=O)N[C@@H](CCC(=O)O)C(=O)N[C@H](C(=O)NCC(=O)N[C@@H](CO)C(=O)N[C@@H](CC(N)=O)C(=O)N[C@H](C(=O)N1C[C@H](O)C[C@H]1C(N)=O)[C@@H](C)O)C(C)C)[C@@H](C)O)N(C)C(=O)[C@H](C)NC(=O)CN(C)C(=O)[C@H](Cc1ccccc1)NC(=O)[C@@H](NC(=O)[C@@H](NC(=O)[C@H](CCCNC(=N)N)NC(=O)[C@H](CCC(N)=O)NC(=O)[C@H](CC(C)C)NC(=O)[C@H](Cc1ccccc1)NC(=O)[C@H](CCCC(=O)O)NC(=O)[C@H](C)NC(=O)[C@H](CC(C)C)NC(=O)[C@H](CCCNC(=N)N)NC(=O)[C@H](CCC(=O)O)NC(=O)[C@@H](NC(=O)[C@H](C)NC(=O)[C@@H]1CCCNC(=O)C[C@H](NC(=O)[C@H](CCCNC(=N)N)NC(=O)CC[C@H](NC(=O)CCCCCCCCCCCCCCCCCCC(=O)O)C(=O)O)C(=O)NCC(=O)N[C@@H]([C@@H](C)O)C(=O)N[C@@H](C)C(=O)N[C@@H]([C@@H](C)O)C(=O)N1)[C@@H](C)O)[C@@H](C)O)[C@@H](C)O
As to B7, in experiment [1], the hAMYR3 EC50 [nM] (cAMP formation, 1321N1 cells expressing hAMYR3) was 0.013 nM. The hCT-R EC50 [nM] (cAMP formation, 1321N1 cells expressing hCT-R) in experiment [2] amounted to 0.038 nM.
